Results from patent US20060003399A1, “High throughput actin polymerization assay” (Cytokinetics, Inc., priority 2004, published 2006).
Entries after “also recorded” stand apart in the source; their conditions may differ.

How the values were obtained:
full length human WASP = biological target: T1, full length human WASP (Homo sapiens, UniProt P42768); experiment: Pyrene-actin polymerization assay: activation of full length WASP by upstream regulators; format: biochemical; details: for activation of FL-WASP (in words): Arp2/3 4.0 nM, actin 3.5 μM; for acceleration of actin polymerization by the activator: FL-WASP; for Barbed ends % of max.** (WASP): after subtracting baseline (WASP without activators); for Barbed ends, nM* (WASP): total concentration of Arp2/3 complex in the assay is 4.2 nM; for EC50: activation of WASP
T1 construct: Full length human WASP and N-WASP were TAP-tagged; Myc (N); made in house; host or cells: human 293 cells (Freestyle 293-F), transient transfection
T1 sequence (P42768 1-502): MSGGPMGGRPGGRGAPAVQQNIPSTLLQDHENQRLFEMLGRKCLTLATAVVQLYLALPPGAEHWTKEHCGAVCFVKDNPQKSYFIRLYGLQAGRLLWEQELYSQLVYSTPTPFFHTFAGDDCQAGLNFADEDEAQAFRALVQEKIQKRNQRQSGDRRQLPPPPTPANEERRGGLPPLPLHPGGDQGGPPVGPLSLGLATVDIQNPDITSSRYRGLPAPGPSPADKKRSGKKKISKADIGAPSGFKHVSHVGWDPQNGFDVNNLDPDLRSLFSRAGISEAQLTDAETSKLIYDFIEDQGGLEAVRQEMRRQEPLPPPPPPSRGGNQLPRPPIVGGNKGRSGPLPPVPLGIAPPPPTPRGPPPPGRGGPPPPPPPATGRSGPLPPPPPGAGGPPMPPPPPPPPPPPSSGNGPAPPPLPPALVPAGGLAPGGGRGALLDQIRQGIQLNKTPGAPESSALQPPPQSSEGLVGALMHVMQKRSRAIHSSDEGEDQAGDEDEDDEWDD
Description: (§1) Samples containing candidate agents (individually or as mixtures) are placed into wells on a multi-well plate. Mix 1 is added to each of the wells and mixed with the candidate agent. A sample of Mix 2 is then introduced into each well and the resulting mixture thoroughly mixed. Typically, Mix 1 and Mix 2 are mixed in 1:1 ratio (e.g., 50 μl each of Mix 1 and Mix 2).
(§2) Actin polymerization is measured as a function of time by exciting pyrene at 365 nm and by detecting an increase in fluorescence emission at 407 nm, or by exciting acrylodan at 405 nm and by detecting an increase in fluorescence emission at 460 nm. The change in fluorescence over time is utilized to determine a fluorescence parameter (e.g., maximal velocity, time to half maximal fluorescence intensity, or area under the curve of a plot of fluorescence versus time; see e.g., FIGS. 5A-5F).
(§3) Full length human WASP and N-WASP were TAP-tagged (Rigaut, et al. (1999) Nat. Biotechnology 17:1030, which is incorporated herein by reference in its entirety for all purposes) at the C-terminus (see, also Examples 2 and 3). The recombinant WASP and N-WASP were expressed in human 293 cells and then purified using a TAP-tag protocol as described in Example 6.
Arp2/3 was purified as described in Example 1. […]
The effect of PIP2 on the ability of upstream regulators to regulate FL-WASP was evaluated in a fifth set of experiments. The results are depicted in graphical format in FIG. 11.

full length human N-WASP = biological target: T2, full length human N-WASP (Homo sapiens, UniProt O00401); experiment: Pyrene-actin polymerization assay: activation of full length N-WASP by upstream regulators; format: biochemical; details: for Barbed ends % of max.** (N-WASP): after subtracting baseline (WASP without activators); for Barbed ends, nM* (N-WASP): total concentration of Arp2/3 complex in the assay is 4.2 nM; for EC50: activation of N-WASP; for activation of FL-N-WASP (in words): Arp2/3 4.0 nM, actin 3.5 μM
T2 construct: Full length human WASP and N-WASP were TAP-tagged; Myc (N); made in house; host or cells: human 293 cells (Freestyle 293-F), transient transfection; insert amplified from HeLa total RNA
Description: as §1, §2, §3
Arp2/3 was purified as described in Example 1.
Arp2/3 and actin concentrations were as described for the third experiment.
Another set of experiments similar to the fifth set were conducted using FL-N-WASP.

T2 sequence (O00401 whole entry Y76H/A201G/F223S/S242L/D248E/S252L/N296S/A333E): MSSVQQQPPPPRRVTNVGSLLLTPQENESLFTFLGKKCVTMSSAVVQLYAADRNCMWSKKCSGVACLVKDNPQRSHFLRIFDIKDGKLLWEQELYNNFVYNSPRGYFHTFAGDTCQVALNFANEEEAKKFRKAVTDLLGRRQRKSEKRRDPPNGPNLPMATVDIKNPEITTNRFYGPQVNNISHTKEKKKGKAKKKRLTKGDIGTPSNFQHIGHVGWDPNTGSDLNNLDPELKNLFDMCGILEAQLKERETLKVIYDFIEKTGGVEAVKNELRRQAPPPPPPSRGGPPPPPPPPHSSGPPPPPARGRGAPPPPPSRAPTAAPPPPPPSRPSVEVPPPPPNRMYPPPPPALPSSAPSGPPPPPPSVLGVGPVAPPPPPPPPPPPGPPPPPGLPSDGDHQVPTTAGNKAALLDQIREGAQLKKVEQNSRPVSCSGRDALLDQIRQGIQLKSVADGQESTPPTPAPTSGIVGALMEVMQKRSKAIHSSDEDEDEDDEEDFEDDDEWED

Row | Substance | activation of FL-WASP (in words) (full length human WASP; FIG. 9) | relative potency as WASP activator (in words) (full length human WASP; FIG. 9) | Barbed ends % of max.** (WASP) (full length human WASP) | Barbed ends, nM* (WASP) (full length human WASP) [nM] | EC50 (full length human WASP) [nM] | Barbed ends % of max.** (N-WASP) (full length human N-WASP; N-WASP) | Barbed ends, nM* (N-WASP) (full length human N-WASP; N-WASP) [nM] | EC50 (full length human N-WASP) [nM] | activation of FL-N-WASP (in words) (full length human N-WASP; FIG. 10) | further results
1 | phosphatidylinositol-4,5-bisphosphate [PIP2, reference compound] |  |  |  |  |  |  |  |  |  | effect of PIP2 on FL-WASP (full length human WASP; in the absence of small GTPases or Nck, FIG. 11): no effect; also recorded: minimal, if any, effect; effect of PIP2 on WASP stimulated actin polymerization (full length human WASP; in the presence of small GTPases or Nck, FIG. 11): strong inhibitory effect; effect of PIP2 on Nck stimulated activation of N-WASP (full length human N-WASP; Nck present, FIG. 12): inhibited; also recorded: inhibitory effect; effect of PIP2 on N-WASP activation by Rac1 or Cdc42 (full length human N-WASP; small GTPases present, FIG. 12): marked synergistic effect; also recorded: synergistically; also recorded: marked synergestic effect
2 | Cdc42: Rho-family GTPase upstream regulator, GST-tagged (SEQ ID NO:26) | fully activates FL-WASP; also recorded: can fully activate FL-WASP | more effective on WASP-stimulated actin nucleation by Arp2/3 complex than on N-WASP-stimulated actin nucleation | 87 % of max. | 3.8 | 16 | 9 % of max. | 1.3 | 287 |  | acceleration of actin polymerization by the activator (full length human WASP; FIG. 7): 13 fold; acceleration of actin polymerization by the activator (full length human WASP; FIG. 7 legend): 13 times; acceleration of actin polymerization by the activator (full length human N-WASP; FL-N-WASP, FIG. 7 legend): 13 times; acceleration of actin polymerization by the activator (full length human N-WASP; N-WASP, FIG. 7): 13 fold
3 | RhoC: GTPase, GST-tev-RhoC (SEQ ID NO:28) | could not activate |  |  |  |  |  |  |  | could not activate | 
4 | RhoA: GTPase, GST-tev-RhoA (SEQ ID NO:30) | could not activate |  |  |  |  |  |  |  | could not activate | 
5 | Nck2: upstream regulator, GST-tagged (SEQ ID NO:46) |  | most powerful activators | 50 % of max. | 2.6 | 12 | 78 % of max. | 3.5 | 7 | can stimulate production of maximal concentration of barbed ends | dose dependence of WASP activation / barbed end concentration (in words) (full length human WASP; FIG. 9, inhibition at higher concentrations): bell shaped dependence; also recorded: inhibited; relative potency as N-WASP activator (in words) (full length human N-WASP; FIG. 10, Rac1 vs Cdc42 in the absence of PIP2 vesicles): significantly better activator of N-WASP than WASP; also recorded: most powerful activators; dose dependence of N-WASP activation (in words) (full length human N-WASP; FIG. 10, inhibition at higher concentrations): bell shaped dose dependence curve; also recorded: inhibited
